Sequences and labels used below:
B1: RI-A-CooP (peptide)
peptide: [dA][dV]G[dL]G[dS][dL]G[dC][dA]-NH2
modifications: N-terminus assumed
SMILES: CC(C)C[C@@H](NC(=O)CNC(=O)[C@H](NC(=O)[C@@H](C)N)C(C)C)C(=O)NCC(=O)N[C@H](CO)C(=O)N[C@H](CC(C)C)C(=O)NCC(=O)N[C@H](CS)C(=O)N[C@H](C)C(N)=O

Here are results for six molecules from article PMC7409020 (2020).

Square brackets hold non-standard residues; d marks the D form. Ends that are not written are not given here.

The target of this assay is recombinant N-terminal His6-tagged human FABP3 (human, NT-650-NHS red amine-reactive fluorescent dye (in the MST experiments only)). As to the kind of experiment: MST.
Sequence of recombinant N-terminal His6-tagged human FABP3 (human, NT-650-NHS red amine-reactive fluorescent dye (in the MST experiments only)) (P05413 whole entry): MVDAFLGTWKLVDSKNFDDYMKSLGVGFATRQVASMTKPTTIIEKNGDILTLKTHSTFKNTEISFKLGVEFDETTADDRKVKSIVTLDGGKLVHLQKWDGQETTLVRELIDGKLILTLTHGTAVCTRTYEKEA
One may read the Kd as the constant that tells how readily two partners part at equilibrium. Take ACALSGLGVA-NH2 [A-[Ala^2]CooP]: the dissociation constant (Kd) stood at 90 nM.

As to ACGLSGAGVA-NH2 [A-[Ala^6]CooP], the Kd came out at 190 nM.

Turning to B1, the dissociation constant Kd was 24000 nM.

Take ACGLSGLGAA-NH2 [A-[Ala^8]CooP]: the dissociation constant (Kd) was found to be 120 nM.

On to ACGLAGLGVA-NH2 [A-[Ala^4]CooP], for which the dissociation constant (Kd) was 110 nM.

As for ACGASGLGVA-NH2 [A-[Ala^3]CooP], the Kd turned out to be 250 nM.
